What was measured:
[1] = target: circularly permuted RoCBM21 (CP90) (Rhizopus oryzae); assay: AUC; data not shown: apoCP90 at pH 2.5, 3, 4, 5, 6, 7, 8, 9 and 10, no ligand
[2] = target: circularly permuted RoCBM21 (CP90) (Rhizopus oryzae); assay: AUC; sedimentation velocity, no ligand, protein around 1.0 mg/ml, 40,000 rpm, 25°C, absorbance at 280 nm, SEDFIT

Q: What does the source list for “circularly permuted RoCBM21 (CP90) (domain or fragment)”?
A: stoichiometry N [1]: 2; stoichiometry N [2]: 2
